# Test results reported in EP2487185A1 (Clinuvel Pharmaceuticals Limited, dated 2012).
# Non-standard residues stand in square brackets, D forms with d. Nle = CCCC[C@H](N)C(=O)O
# Molecular target: Melanocortin-1 Receptor (human, UniProt Q01726 1-317)
# Experiment: cell-based or functional assay
# Chain of Melanocortin-1 Receptor (Q01726 whole entry): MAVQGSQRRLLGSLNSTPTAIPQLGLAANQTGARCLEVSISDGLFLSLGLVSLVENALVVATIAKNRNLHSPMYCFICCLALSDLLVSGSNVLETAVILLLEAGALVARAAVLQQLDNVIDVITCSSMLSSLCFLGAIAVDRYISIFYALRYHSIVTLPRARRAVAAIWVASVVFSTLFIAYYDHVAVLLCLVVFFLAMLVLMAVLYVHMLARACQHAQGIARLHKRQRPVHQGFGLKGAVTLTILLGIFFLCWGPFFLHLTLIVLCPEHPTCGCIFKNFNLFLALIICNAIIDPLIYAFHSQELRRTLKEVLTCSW
binder,measurement,value
"Ac-[Nle]EH[dF]RW-NH2 (SMILES CCCC[C@H](NC(C)=O)C(=O)N[C@@H](CCC(=O)O)C(=O)N[C@@H](Cc1c[nH]cn1)C(=O)N[C@H](Cc1ccccc1)C(=O)N[C@@H](CCCNC(=N)N)C(=O)N[C@@H](Cc1c[nH]c2ccccc12)C(N)=O) [CUV9900, Ac-Nle-Glu-His-D-Phe-Arg-Trp-NH2 (SEQ ID NO: 1) variation]","tyrosinase activity, concentration giving maximal stimulation, melanocyte strain 102b, 6 days",0.1 nM
